Common to all, as to experiment: smFRET
For data set [1], the target named is T1, yNhp6A (Saccharomyces cerevisiae, UniProt P11632 1-93).
Data set [2] deals with T1, yNhp6A. This is another data set of the same source.
In data set [3] the target is T1, yNhp6A. This is another data set of the same source.
Data set [4] has as its target T1, yNhp6A. The source holds these as a separate data set.

Like-named read-outs stand apart in the source and are kept apart here.

The values below come from paper PMC3554232.

The Kd is the free concentration of one partner at which half of the binding sites on the other are occupied at equilibrium, for simple one-to-one binding.

T1 sequence (P11632 whole entry): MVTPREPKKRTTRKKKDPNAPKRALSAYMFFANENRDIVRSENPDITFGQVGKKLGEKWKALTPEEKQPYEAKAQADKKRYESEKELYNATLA

B1: linear_18b (dsDNA)
DNA 1: TGGTTATATCATCTAGGC
DNA 2: GCCTAGATGATATAACCATTTTTTTTTTTTTTT
As for B1, in the data set with yNhp6A [1], the binding signal is ~2 fold affinity vs linear_18a.

B2: linear_18a (dsDNA)
DNA 1: TGGCGACGGCAGCGAGGC
DNA 2: GCCTCGCTGCCGTCGCCATTTTTTTTTTTTTTT
For B2, the Kd in the data set with yNhp6A [2] was roughly 1 nM.

B3: bulge_15a (dsDNA)
DNA 1: CGACGGCAAAGCGAGGC
DNA 2: GCCTCGCTGCCGTCGCCATTTTTTTTTTTTTTT
In the case of B3, the binding result in the data set with yNhp6A [3] is “binds”.

B4: bulge_18a (dsDNA)
DNA 1: TGGCGACGGAACAGCGAGGC
DNA 2: GCCTCGCTGCCGTCGCCATTTTTTTTTTTTTTT
Regarding B4, the binding signal with yNhp6A [4] was roughly 2 fold kon vs linear_18a.

B5: linear_15a (dsDNA)
DNA 1: CGACGGCAGCGAGGC
DNA 2: GCCTCGCTGCCGTCGCCATTTTTTTTTTTTTTT
Take B5: the binding result with yNhp6A [3] was “binds”.
